Biological target: importin α5 (UniProt P52294)
Test: co-immunoprecipitation, western blot
Settings: reference: KIAA1429-WT; sites S1579

binding against the reference: stronger
Substance: KIAA1429 (VIRMA) (from UniProt Q69YN4) KIAA1429-SA (S1579A)

Reference: paper PMC12225155
